According to the RNAGym collection of RNA variant scans (doi:10.7554/elife.80360):

B1: HDV Ribozyme (parent)
chain: GGCCGGCAUGGUCCCAGCCUCCUCGCUGGCGCCGGCUGGGCAACAUUCCGAGGGGACCGUCCCCUCGGUAAUGGCGAAUGGGACCCA

Variants of: B1
Test: self-cleavage, relative activity (ratio to wild type); higher = more cleavage; co-transcriptional

Row | Variant | self-cleavage
1 | G2A A45C | 0.0723
2 | G2A A45G | 0.0779
3 | G2A A45U | 0.111
4 | G2A C26U | 0.138
5 | G1C U12C | 0.175
6 | G1U C30U | 0.35
7 | G1U C30G | 0.282
8 | G1C U72G | 0
9 | G2A A16C | 0.0733
10 | G2A A16G | 0.237
11 | G2A C44G | 0.0185
12 | G2A C44A | 0.0875
13 | G1C U79C | 0.177
14 | G1C U79A | 0.237
15 | G1C U47C | 0.399
16 | G1U A51U | 0.462
17 | G2A G59C | 0.244
18 | G2A G59U | 0.19
19 | G1U A87C | 0.408
20 | G1U A87G | 0.332
21 | G2A C75G | 0.0615
22 | G2A C75A | 0.0542
23 | G2A C4U | 0.163
24 | G1C C86G | 0.268

Row | Variant | self-cleavage
25 | G1C C86A | 0.0978
26 | G1C U37G | 0
27 | G1C U37C | 0.128
28 | G1U C22A | 0.441
29 | G2A C41G | 0.0645
30 | G2A C41U | 0.198
31 | G1C C58A | 0.297
32 | G1C C58G | 0.199
33 | G1C U9C | 0
34 | G1C U9G | 0.104
35 | G1C G53C | 0.332
36 | G1C G53U | 0.213
37 | G1U U69A | 0.332
38 | G1U U69C | 0.259
39 | G1U U23C | 0.665
40 | G1U U23G | 0.277
41 | G1U U23A | 0.203
42 | G1C C26G | 0.227
43 | G1C C26A | 0.166
44 | G1U C13A | 0.321
45 | G2A C33U | 0.035
46 | G1U U65G | 0.17
47 | G1U U65A | 0.191
48 | G2A G25U | 0.161

Row | Variant | self-cleavage
49 | G2A G25A | 0.0346
50 | G2A G25C | 0.0744
51 | G1C C57U | 0.252
52 | G1C C57G | 0.222
53 | G1U G74C | 0.262
54 | G1U G74A | 0.288
55 | G1U G74U | 0.358
56 | G1U C14U | 0.434
57 | G1U C64U | 0.451
58 | G1U G52U | 0.372
59 | G1U G52A | 0.356
60 | G1U G52C | 0.332
61 | G1U G35C | 0.191
62 | G1U U9G | 0.399
63 | G1U U9C | 0.554
64 | G1U U9A | 0.389
65 | G1U U60A | 0.343
66 | G1C U60C | 0.0639
67 | G2A G53U | 0.145
68 | G2A C57A | 0.258
69 | G2A C57G | 0.158
70 | G1C G25U | 0.0665
71 | G1C G25A | 0.0755
72 | G1C G76U | 0.115

Row | Variant | self-cleavage
73 | G2A G6U | 0.0683
74 | G2A G6C | 0
75 | G1U U12G | 0.369
76 | G1U U12C | 0.499
77 | G1U U12A | 0.434
78 | G2A C64G | 0.0923
79 | G1C G5C | 0
80 | G1U A77C | 0.494
81 | G1U A77G | 0.406
82 | G1U A56U | 0.394
83 | G1U A56G | 0.521
84 | G1U C84A | 0.408
85 | G2A C22A | 0.0205
86 | G2A C22U | 0.0183
87 | G1U C44A | 0.479
88 | G1U C44G | 0.271
89 | G1U A70G | 0.536
90 | G1U A70C | 0.302
91 | G2A C18A | 0.0236
92 | G2A C18U | 0.0239
93 | G2A C18G | 0.0817
94 | G1C G52U | 0.219
95 | G1C G52A | 0.166
96 | G1C G54C | 0.26

Row | Variant | self-cleavage
97 | G1C G54U | 0.396
98 | G1U A45U | 0.441
99 | G1U A45G | 0.291
100 | G1U A45C | 0.453
101 | G1C G39C | 0.0519
102 | G1U G10A | 0.387
103 | G1C G82U | 0.095
104 | G1C G82C | 0.0504
105 | G1C G2A | 0.138
106 | G1C G2U | 0.256
107 | G1U G54U | 0.358
108 | G2A G31U | 0.0205
109 | G2A G31A | 0.0729
110 | G2A G39U | 0.0305
111 | G2A G39C | 0.0712
112 | G1U G29C | 0.292
113 | G1U G29U | 0.308
114 | G2A | 0.2
115 | G2A G52U | 0.201
116 | G2A A83C | 0.0583
117 | G2A A83G | 0.122
118 | G1U G39U | 0.337
119 | G1U G39C | 0.397
120 | G1U A42C | 0.332

Row | Variant | self-cleavage
121 | G1U A42G | 0.403
122 | G1C G34U | 0.0692
123 | G2A G55A | 0.191
124 | G2A G55C | 0.194
125 | G2A G55U | 0.271
126 | G1U U46C | 0.277
127 | G2A G40U | 0.0799
128 | G2A G40C | 0
129 | G2A G40A | 0.136
130 | G1U G50C | 0.203
131 | G1U G50A | 0.475
132 | G1U C75U | 0.321
133 | G1U C75A | 0.277
134 | G1U G11U | 0.439
135 | G1U G11A | 0.364
136 | G2A G54U | 0.127
137 | G2A G54A | 0.194
138 | G2A G54C | 0.296
139 | G1C G40A | 0.111
140 | G1C G40U | 0.189
141 | G2A G17A | 0.0604
142 | G2A G17C | 0
143 | G1U C26A | 0.288
144 | G1C C30G | 0.128

Row | Variant | self-cleavage
145 | G2A G67A | 0.11
146 | G1C G28A | 0.0405
147 | G1U G38C | 0.369
148 | G1U G38A | 0.422
149 | G2A A87G | 0.145
150 | G2A A87U | 0.237
151 | G2A A87C | 0.273
152 | G1C G29C | 0.0665
153 | G1U C62A | 0.248
154 | G1U C62U | 0.443
155 | G1U C62G | 0.391
156 | G2A A77U | 0.0631
157 | G2A A77C | 0.0437
158 | G2A A77G | 0.141
159 | G2A C49G | 0.135
160 | G2A C49A | 0.122
161 | G1U G25U | 0.248
162 | G2A C32A | 0.0507
163 | G2A C32G | 0.0441
164 | G1U C21G | 0.312
165 | G1U C21A | 0.397
166 | G1U C21U | 0.348
167 | G1U C19A | 0.383
